Experimental data as given in patent publication US7329737 (DYAX, dated 2008).
Substitutions are numbered along the chain they refer to.

B1: M0098-C10 (Fab, V domains shown)
VH: EVQLLESGGGLVQPGGSLRLSCAASGFTFSFYSMMWVRQAPGKGLEWVSGISSSGGTTKYADSVKGRFTISRDNSKNTLYLQMNSLRAEDTAVYYCARGGTNYDYVWGSYRSHYYYYGMDVWGQGTTVTVSS
VL: DIQMTQSPSSLSASVGDRVTITCRASHNIYTSLNWLQQKPGKAPKLLIYGASTLENGVPSRFSGSASGTDFTLTISSLQPEDSATYYCQQSYTSVTFGQGTKLEIRR
B2: M0111-B02 (Fab, V domains shown)
VH: EVQLLESGGGLVQPGGSLRLSCAASGFTFSKYWMAWVRQAPGKGLEWVSVIYPSGGQTKYADSVKGRFTISRDNSKNTLYLQMNSLRAEDTAVYYCTLMRYGDRFDYWGQGTLVTVSS
VL: AQYELTQDPAVSVALGQTVRITCQGDSLRSYYASWYQQKPGQAPVLVIYSKSNRPSGIPDRFSGSSSGSTASLTITGAQAEDEADYYCNSRDSSGNHLVFGGGTKLTVL
B3: M0103-F07 (Fab, V domains shown)
VH: EVQLLESGGGLVQPGGSLRLSCAASGFTFSLYAMHWVRQAPGKGLEWVSSIRPSGGLTKYADSVKGRFTISRDNSKNTLYLQMNSLRAEDTAVYYCARVGVWYGMDVWGQGTTVTVSS
VL: AQSALTQPASVSGSPGQSITISCTGTSNDIGRTNYVSWYRQDPGRAPKLILFEVSNRPSGISNRFSASKSGSTASLTISGLQADDESDYYCSSCTTAPVCVFGNGTRVTVLG
B4: M0112-C12 (Fab, V domains shown)
VH: B3 VH with L31R, A33M, H35Y, R52Y, L57K, K59L
VL: DIQMTQSPGTLSLSPGERATLSCRASQSVSSSYLAWYQQKPGQAPRLLIYGASSRATGIPDRFSGSGSGTEFTLTISSLQSEDSAVYYCQQYNNWPPLTFGGGTKVEIKR
B5: M0117-A12 (Fab, V domains shown)
VH: B3 VH with L31N, A33K, H35S, S50G, R52Y, K59Q, R98K
VL: DIQMTQSPGTLSLSPGDRATLSCRASQSVGSDYLAWYQQKPGQAPRLLIYGASSRATGIPDRFSGSGSGTDFTLTISRLEPEDFAVYYCQQYGSSLYTFGQGTKLEIKR
B6: M0097-E07 (Fab, V domains shown)
VH: B3 VH with L31W, A33Q, H35M, Q39K, S50Y, P53S, L57K, K59D
VL: DIQMTQSPSSLSASVGDRVTITCRASQSISSYLSWFQQRPGKAPKLLIYSASNLQSGVPLRFSGSGSGTDFTLTISSLQPEDFATYYCQQIYRTPLTFGGGTKVEIKR
B7: M0095-H10 (Fab, V domains shown)
VH: EVQLLESGGGLVQPGGSLRLSCAASGFTFSNYKMQWVRQAPGKGLEWVSSIYSSGGKTVYADSVKGRFTISRDNSKNTLYLQMNSLRAEDTAVYYCARTPGYNYFDYWGQGTLVTVSS
VL: DIQMTQSPSTLSASVGDRVTITCRASQSISSWLAWYQQKPGKAPKLLIYTASSLESGVPSRFSAGGSGTEFTLTISSLQPDDFGTYYCQQYNSYSLTFGGGTKVEIKR
B8: M0102-A04 (Fab, V domains shown)
VH: EVQLLESGGGLVQPGGSLRLSCAASGFTFSHYVMNWVRQAPGKGLEWVSRIYPSGGVTVYADSVKGRFTISRDNSKNTLYLQMNSLRAEDTAVYYCARGYGMDVWGQGTMVTVSS
VL: AQSELTQPPSASGTPGQRVTISCSGSSSNIGSNYVYWYQQYPGTVPKLLIHSNNQRPSGVPDRFSGPKSGTSASLAISGLRSEDEADYYCATWDNSLSAWVFGGGTKLTVLR
B9: M0127-H05 (Fab, V domains shown)
VH: B8 VH with V33L, N35G, R50S, Y52W, V57H, V59S, G99H, M110T
VL: DIQMTQSPSSLSASVGDRVTITCRASQSISSYLNWYQQKPGKVPKLLIYAASSLQSGVPSRFSGSGSGTDFTLTISSLQPDDFATYYCQQTFSTWTFGQGTKVEIRR
B10: M0119-B09 (Fab, V domains shown)
VH: EVQLLESGGGLVQPGGSLRLSCAASGFTFSWYWMYWVRQAPGKGLEWVSVIGSSGGVTKYADSVKGRFTISRDNSKNTLYLQMNSLRAEDTATYYCARGPYRGYFDYWGQGTLVTVSS
VL: DIQMTQSPATLSVSPGEGATLSCRASQSVGNSLAWYQQKPGQAPRVLVYGASTRASGIPARFSGSGSVTEFTLTISSLQSEDFAVYYCQEYNKWPITFGQGTRLERKR
B11: M0138-B06 (Fab, V domains shown)
VH: EVQLLESGGGLVQPGGSLRLSCAASGFTFSPYTMSWVRQAPGKGLEWVSGIYPSGGETWYADSVKGRFTISRDNSKNTLYLQMNSLRAEDTAVYYCAKNINLRYDILTGYFDFWGQGTMVTVSS
VL: DIQMTQSPSSVSASVGDRVTITCRASQGISSWLAWYQQKPGKAPKLLIYAASSLQSGVPSRFSGSGSGTDFTLTISSLQPEDFATYYCQQANSFPLTFGGGTKVEIKR
B12: M0129-B09 (Fab, V domains shown)
VH: B3 VH with L31R, A33W, R52G, L57V, V99H, V101S, Y103G
VL: B11 VL with S10F, V11L, W32Y, S53T, D70E, A91L, F94Y, L96R, G100Q
B13: M0107-D05 (Fab, V domains shown)
VH: EVQLLESGGGLVQPGGSLRLSCAASGFTFSNYHMQWVRQAPGKGLEWVSSIYPSGGFTRYADSVKGRFTISRDNSKNTLYLQMNSLRAEDTAVYYCARDGGQGGWGQGTLVTVSS
VL: B11 VL with S10T, V11L, G28S, A43V, Y49H, S53T, F83V, Q90K, A91Y, F94A
B14: M0126-B12 (Fab, V domains shown)
VH: EVQLLESGGGLVQPGGSLRLSCAASGFTFSHYVMGWVRQAPGKGLEWVSSIYPSGGKTTYADSVKGRFTISRDNSKNTLYLQMNSLRAEDTAVYYCASPSTGSWSAFDIWGQGTMVTVSS
VL: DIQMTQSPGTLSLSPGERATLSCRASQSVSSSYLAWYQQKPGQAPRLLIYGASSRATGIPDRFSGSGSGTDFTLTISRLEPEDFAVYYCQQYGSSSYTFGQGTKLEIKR
B15: M0139-A04 (Fab, V domains shown)
VH: EVQLLESGGGLVQPGGSLRLSCAASGFTFSHYPMTWVRQAPGKGLEWVSSIRPSGGNTGYADSVKGRFTISRDNSKNTLYLQMNSLRAEDTAVYYCARLTGYSSGWFWAYGMDVWGQGTTVTVSS
VL: DIQMTQSPGTLSLSPGDRATLSCRASQSVSSSYLAWYQQKAGQAPRLLIYGAASRATGIPDRFSGSGSGTDFTLTISRLEREDFAVYYCQQYGSSPLITFGQGTRLEIKR
B16: M0126-C10 (Fab, V domains shown)
VH: EVQLLESGGGLVQPGGSLRLSCAASGFTFSHYKMHWVRQAPGKGLEWVSSIWPSGGGTFYADSVKGRFTISRDNSKNTLYLQMNSLRAEDTAMYYCARTSGGFGAFDIWGQGTMVTVSS
VL: DIQMTQSPSSLSASVGDRVTITCRAGQTINNYLNWYQQKPGKAPNLLIYAASNLQSGVPSRFSGSKSGTDFTLTISSLQPEDFATYHCQQTYRTPFTFGGGTRVEIKG
B17: M0099-C12 (Fab, V domains shown)
VH: EVQLLESGGGLVQPGGSLRLSCAASGFTFSRYAMHWVRQAPGKGLEWVSSIWPSGGATFYADSVKGRFTISRDNSKNTLYLQMNSLRAEDTAVYYCATSPTLNAFHIWGQGTMVTVSS
VL: AQSVLTQPASVSGSPGQSITISCTGTTSDVGGYKYVSWYQHHPGKVPKLIIYEVNHRPSGVSHRFSGSKSGNTASLIISALQAEDEADYYCYSYTSDSTPYVFGTGTKVTVL
B18: M0127-D05 (Fab, V domains shown)
VH: EVQLLESGGGLVQPGGSLRLSCAASGFTFSHYYMMWVRQAPGKGLEWVSSIGPSGGMTDYADSVKGRFTISRDNSKNTLYLQMNSLRAEDTAVYYCATGGTASLDYWGQGTLVTVSS
VL: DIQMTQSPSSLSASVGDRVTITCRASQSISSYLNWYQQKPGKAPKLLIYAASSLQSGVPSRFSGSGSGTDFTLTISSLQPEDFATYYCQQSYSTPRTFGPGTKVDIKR
B19: M0108-C10 (Fab, V domains shown)
VH: EVQLLESGGGLVQPGGSLRLSCAASGFTFSRYVMAWVRQAPGKGLEWVSVIRPSGGKTLYADSVKGRFTISRDNSKNTLYLQMNSLRAEDTAVYYCARVAGRVGVPATKKNWFDPWGQGTLVTVSS
VL: AQSVLTQPASVSGSPGQSITISCTGTSSDVGGYNYVSWYQQHPGQPPKLIIYEVSNRASGVSNRFSGSKFGNTASLTISGLQSEDEADYHCSSYTSSTTLLFGGGTRLTVLG
B20: M0122-G06 (Fab, V domains shown)
VH: EVQLLESGGGLVQPGGSLRLSCAASGFTFSWYAMHWVRQAPGKGLEWVSVISPSGGATRYADSVKGRFTISRDNSKNTLYLQMNSLRAEDTAVYYCVRASTVTTLFQHWGQGTLVTVSS
VL: AQSALTQPASVSGSPGQSITISCTGTSSDVGGYNYVSWYQQHPGKAPKLMIYDVSKRPSGVSNRFSGSKSGNTASLTISGLQAEDEADYYCSSYTSSITLVVFGGGTKLTVLS
B21: M0099-E11 (Fab, V domains shown)
VH: EVQLLESGGGLVQPGGSLRLSCAASGFTFSHYTMVWVRQAPGKGLEWVSSIYSSGGRTNYADSVKGRFTISRDNSKNTLYLQMNSLRAEDTAVYYCARIVVVPSAQFYFYYGMDVWGQGTTVTVSS
VL: DIQMTQSPSTLSASVGDRVTITCRASQSISNWLAWYQQKPGRAPKLLIYKASTLESGVPSRFSGSGSGTEFTLTISSLQPDDFATYYCQHYNSYSLFGQGTKLEIKR

Biological target: T1, hK1 (human tissue kallikrein 1), recombinant (human, UniProt P06870 25-262)
T1 construct: Expressed in P. pastoris from KLK1 cDNA and purified; enzymatically active; also called KLK1; Recombinant (Pichia) Kallikrein
Test: SPR

| Binder | Kd [nM] | koff [s⁻¹] | kon [M⁻¹ s⁻¹] |
| --- | --- | --- | --- |
| B1 | 16.1 | 0.00193 | 120000 |
| B2 | 12.7 | 1170 |  |
| B3 | 13.2 | 0.00743 | 564000 |
| B4 | 16 | 0.00465 | 290000 |
| B5 | 14.2 | 0.00345 | 243000 |
| B6 | 13.9 | 0.00815 | 585000 |
| B7 | 16.5 | 0.00918 | 556000 |
| B8 | 13.3 | 0.00435 | 327000 |
| B9 | 15.3 | 0.00439 | 287000 |
| B10 | 13.7 | 0.00483 | 352000 |
| B11 | 12.5 | 0.000829 | 66400 |
| B12 | 12.7 | 0.022 | 1.73e+06 |
| B13 | 15.3 | 0.003 | 195000 |
| B14 | 15 | 0.00579 | 385000 |
| B15 | 12.2 | 0.00503 | 411000 |
| B16 | 14.4 | 0.00648 | 451000 |
| B17 | 13 | 0.00461 | 354000 |
| B18 | 14.4 | 0.000921 | 63900 |
| B19 | 12.2 | 0.00431 | 353000 |
| B20 | 15.2 | 0.107 | 7.08e+06 |
| B21 | 13.2 | 0.00796 | 605000 |
